{"source": "patent US5814460A", "about": "“Method for generating and screening useful peptides” (Diatide, Inc., priority 1995, dated 1998)", "origin": "cited, not measured here", "key": {"[1]": {"biological_target": "T1, streptavidin (Streptomyces avidinii, UniProt P22629)", "T1 construct": "purchased Sigma Chemical Company", "T1 sequence (P22629 25-183)": "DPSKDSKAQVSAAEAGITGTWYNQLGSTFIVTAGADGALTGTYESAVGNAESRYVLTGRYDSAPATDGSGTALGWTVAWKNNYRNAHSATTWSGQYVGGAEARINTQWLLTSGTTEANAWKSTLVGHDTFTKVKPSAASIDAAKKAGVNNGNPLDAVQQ", "conditions": "read-out: Kd of streptavidin complex"}, "[2]": {"biological_target": "fibrinogen receptor (GpIIb IIIa) (Homo sapiens, UniProt P05106+P08514)"}, "[3]": {"biological_target": "Angiotensin II Receptor", "conditions": "Table 6"}, "[4]": {"biological_target": "fibrin polymerization (Homo sapiens, UniProt P02679)", "sequence (P02671 20-629 partner limits assumed)": "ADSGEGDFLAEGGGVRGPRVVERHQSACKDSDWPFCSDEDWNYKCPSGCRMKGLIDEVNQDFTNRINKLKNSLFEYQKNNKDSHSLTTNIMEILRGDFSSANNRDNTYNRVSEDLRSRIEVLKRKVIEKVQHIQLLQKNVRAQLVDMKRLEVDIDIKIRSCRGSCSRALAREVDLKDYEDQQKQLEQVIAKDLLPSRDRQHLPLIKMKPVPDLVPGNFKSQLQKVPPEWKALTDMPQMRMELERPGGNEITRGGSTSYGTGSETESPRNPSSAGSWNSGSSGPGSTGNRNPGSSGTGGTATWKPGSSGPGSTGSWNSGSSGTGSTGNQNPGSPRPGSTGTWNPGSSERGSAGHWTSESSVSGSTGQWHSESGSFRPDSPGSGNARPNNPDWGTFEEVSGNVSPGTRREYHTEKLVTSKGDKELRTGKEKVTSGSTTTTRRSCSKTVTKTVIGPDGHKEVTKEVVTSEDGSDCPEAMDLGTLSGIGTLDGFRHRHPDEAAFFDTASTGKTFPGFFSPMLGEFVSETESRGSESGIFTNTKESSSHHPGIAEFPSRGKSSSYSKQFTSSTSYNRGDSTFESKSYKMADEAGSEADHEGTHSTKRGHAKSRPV", "sequence (P02675 31-491 partner)": "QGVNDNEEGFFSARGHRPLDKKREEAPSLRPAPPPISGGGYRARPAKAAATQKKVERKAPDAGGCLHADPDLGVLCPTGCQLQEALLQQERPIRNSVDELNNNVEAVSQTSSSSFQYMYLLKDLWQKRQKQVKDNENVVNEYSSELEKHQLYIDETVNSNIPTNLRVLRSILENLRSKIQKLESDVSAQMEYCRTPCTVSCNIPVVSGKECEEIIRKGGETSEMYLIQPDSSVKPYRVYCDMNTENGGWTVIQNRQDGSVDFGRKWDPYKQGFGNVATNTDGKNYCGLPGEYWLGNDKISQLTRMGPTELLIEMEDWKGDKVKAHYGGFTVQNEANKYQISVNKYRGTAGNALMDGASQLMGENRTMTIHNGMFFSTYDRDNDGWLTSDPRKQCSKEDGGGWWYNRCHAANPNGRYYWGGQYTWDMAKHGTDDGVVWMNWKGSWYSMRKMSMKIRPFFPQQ", "sequence (P02679 27-433 limits assumed)": "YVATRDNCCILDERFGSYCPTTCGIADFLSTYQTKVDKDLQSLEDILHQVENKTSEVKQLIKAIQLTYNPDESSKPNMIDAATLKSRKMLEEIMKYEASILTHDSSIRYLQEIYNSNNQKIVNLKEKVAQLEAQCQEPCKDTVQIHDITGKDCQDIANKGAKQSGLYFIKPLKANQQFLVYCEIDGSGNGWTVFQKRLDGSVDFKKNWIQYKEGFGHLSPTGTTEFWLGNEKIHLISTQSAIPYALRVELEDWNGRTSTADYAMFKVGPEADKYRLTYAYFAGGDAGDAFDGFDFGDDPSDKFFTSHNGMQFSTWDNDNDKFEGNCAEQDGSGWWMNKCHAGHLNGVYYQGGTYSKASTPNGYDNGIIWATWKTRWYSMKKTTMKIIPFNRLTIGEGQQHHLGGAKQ", "conditions": "literature statement"}, "[5]": {"biological_target": "human fibrinogen (Homo sapiens, UniProt P02679)", "sequence (P02671 20-629 partner limits assumed)": "as the sequence (P02671 20-629 partner limits assumed) above", "sequence (P02675 31-491 partner)": "as the sequence (P02675 31-491 partner) above", "sequence (P02679 27-433 limits assumed)": "as the sequence (P02679 27-433 limits assumed) above", "conditions": "read-out: affinities for human fibrinogen"}, "[6]": {"biological_target": "Porcine PLA2 (Sus scrofa, UniProt P00592)", "sequence (P00592 23-146)": "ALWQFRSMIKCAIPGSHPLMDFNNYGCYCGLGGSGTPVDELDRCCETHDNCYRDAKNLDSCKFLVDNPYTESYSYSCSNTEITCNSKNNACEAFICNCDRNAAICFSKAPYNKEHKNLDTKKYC", "conditions": "Table 6"}, "[7]": {"biological_target": "Pepsin (hum.) (Homo sapiens, UniProt P0DJD7)", "sequence (P0DJD7 63-388)": "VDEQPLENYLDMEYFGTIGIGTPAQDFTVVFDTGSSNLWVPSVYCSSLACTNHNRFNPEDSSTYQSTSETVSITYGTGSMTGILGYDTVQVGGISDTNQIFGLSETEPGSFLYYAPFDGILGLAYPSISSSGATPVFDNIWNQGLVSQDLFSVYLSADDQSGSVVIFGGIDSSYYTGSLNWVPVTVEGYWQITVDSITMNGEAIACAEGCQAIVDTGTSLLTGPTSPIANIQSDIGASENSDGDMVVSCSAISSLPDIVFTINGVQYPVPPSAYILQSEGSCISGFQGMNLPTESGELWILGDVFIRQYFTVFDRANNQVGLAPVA", "conditions": "Table 6"}, "[8]": {"biological_target": "Urokinase Receptor (hum.) (Homo sapiens, UniProt Q03405)", "sequence (Q03405 23-335)": "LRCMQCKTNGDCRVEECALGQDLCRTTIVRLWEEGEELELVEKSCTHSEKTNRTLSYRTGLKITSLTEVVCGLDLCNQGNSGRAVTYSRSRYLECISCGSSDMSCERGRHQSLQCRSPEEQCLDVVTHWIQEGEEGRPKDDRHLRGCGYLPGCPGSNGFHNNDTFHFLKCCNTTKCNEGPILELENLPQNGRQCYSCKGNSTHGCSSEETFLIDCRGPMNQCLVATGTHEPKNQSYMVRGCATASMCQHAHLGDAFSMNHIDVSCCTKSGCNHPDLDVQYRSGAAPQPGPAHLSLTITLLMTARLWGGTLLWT", "conditions": "Table 6"}, "[9]": {"biological_target": "CD4 (Homo sapiens, UniProt P01730)", "conditions": "Table 6"}, "[10]": {"biological_target": "T2, Gastricsin (hum.) (Homo sapiens, UniProt P20142)", "T2 sequence (P20142 60-388)": "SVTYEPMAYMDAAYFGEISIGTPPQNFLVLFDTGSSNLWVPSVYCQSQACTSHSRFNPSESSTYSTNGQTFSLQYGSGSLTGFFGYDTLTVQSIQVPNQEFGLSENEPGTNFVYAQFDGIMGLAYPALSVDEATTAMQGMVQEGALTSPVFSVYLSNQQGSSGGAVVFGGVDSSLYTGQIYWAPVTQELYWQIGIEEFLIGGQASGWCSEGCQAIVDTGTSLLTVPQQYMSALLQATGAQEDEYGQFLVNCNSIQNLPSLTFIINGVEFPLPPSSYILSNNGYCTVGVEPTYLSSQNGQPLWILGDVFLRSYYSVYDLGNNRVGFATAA", "conditions": "Table 6"}, "[11]": {"biological_target": "Calmodulin (Homo sapiens, UniProt P0DP23)", "conditions": "Table 6"}, "[12]": {"biological_target": "Fibronectin (rat) (human)", "sequence (P04937 1540-1633 limits assumed)": "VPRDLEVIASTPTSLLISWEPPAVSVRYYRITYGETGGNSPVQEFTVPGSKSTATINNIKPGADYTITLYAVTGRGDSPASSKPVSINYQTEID", "conditions": "Table 6"}, "[13]": {"conditions": "Table 6, target GpIIb IIa, read-out: Kd"}}, "note": "Read-outs that look alike come from different tables or passages of the source.", "data": [{"molecule": "N=C1N[C@H]2[C@H](CS[C@H]2CCCCC(=O)O)N1", "note": "[imminobiotin]", "values": [{"measurement": "Kd", "setting": "[1]", "result": "~10", "unit": "nM"}]}, {"molecule": "Arg-Gly-Asp-Trp (RGDW)", "values": [{"measurement": "Kd", "setting": "[2]; [13]", "result": 1000, "unit": "nM"}, {"measurement": "Kd", "setting": "[2]; example of a lead peptide, read-out: affinity (Kd) for fibrinogen receptor", "result": 5000, "unit": "nM"}]}, {"molecule": "EGVYVHPV", "values": [{"measurement": "Kd", "setting": "[3]", "result": 100, "unit": "nM"}]}, {"molecule": "GPRP", "values": [{"measurement": "inhibition of fibrin polymerization", "setting": "[4]", "result": "inhibit fibrin polymerization"}]}, {"molecule": "GPRV: synthetic peptide beginning with GPR that binds fibrinogen", "values": [{"measurement": "Kd", "setting": "[5]", "result": 100000, "unit": "nM"}, {"measurement": "inhibition of fibrin polymerization", "setting": "[4]", "result": "inhibit fibrin polymerization"}]}, {"molecule": "GRGDSP: lead peptide (Fb) for GpIIb IIIa", "values": [{"measurement": "Kd", "setting": "[2]; [13]", "result": 1000, "unit": "nM"}]}, {"molecule": "Gly-Pro-Arg [GPR]", "values": [{"measurement": "Kd", "setting": "[5]", "result": 50000, "unit": "nM"}, {"measurement": "inhibition of fibrin polymerization", "setting": "[4]", "result": "inhibit fibrin polymerization"}]}, {"molecule": "MLFILIKRSRHF", "values": [{"measurement": "Kd", "setting": "[6]", "result": 10000, "unit": "nM"}]}, {"molecule": "RGDY: RGD containing peptide binding GpIIb IIIa", "values": [{"measurement": "Kd", "setting": "[2]; [13]", "result": 1000, "unit": "nM"}]}, {"molecule": "RIFLKRMPSIR", "values": [{"measurement": "Kd", "setting": "[7]", "result": 1000, "unit": "nM"}]}, {"molecule": "TCVXNKYFSNIHW: lead peptide (urokinase) for urokinase receptor", "values": [{"measurement": "Kd", "setting": "[8]", "result": 1000, "unit": "nM"}]}, {"molecule": "TNYT: lead peptide for CD4", "values": [{"measurement": "Kd", "setting": "[9]", "result": 1000, "unit": "nM"}]}, {"molecule": "TTFKRIFLKRMPS", "values": [{"measurement": "Kd", "setting": "[10]", "result": 1000, "unit": "nM"}]}, {"molecule": "VAITVLVK", "values": [{"measurement": "Kd", "setting": "[11]", "result": 1000, "unit": "nM"}]}, {"molecule": "WTVPTA: lead peptide, antisense of GAVSTA RGD sequence, for fibronectin", "values": [{"measurement": "Kd", "setting": "[12]", "result": 1000, "unit": "nM"}]}]}
